Experimental data reported in patent US20150065376A1, “EXPRESSION CONSTRUCTS ENCODING G PROTEIN COUPLED RECEPTORS AND METHODS OF USE THEREOF” (priority 2013, published 2015).

Assays:
Cxcr4b = conditions: value used for graph of free Cxcr4b versus free Sdf1, FIG. S3B; read-out: dissociation constant; cited from earlier work
[1] = molecular target: Cxcr7b (zebrafish CXCR7 ortholog) (zebrafish); test: cell-based or functional assay
[2] = molecular target: Cxcr4b-Kate2 fusion protein (zebrafish Sdf1-signaling sensor) (zebrafish); test: cell-based or functional assay
[3] = molecular target: Cxcr7a (zebrafish CXCR7 ortholog) (zebrafish); test: cell-based or functional assay
human CXCR4 = molecular target: T1, human CXCR4 (Homo sapiens, UniProt P61073); test: human Sdf1-signaling sensor in Flp-In T-REx 293 cell line (CXCR4-Kate2 internalization); assay type: cell-based; conditions: Flp-In T-REx 293 cells, tetracycline-induced sensor, within 40 minutes, not in vehicle treated controls
T1 construct: Kate2 (TagRFP2, RFP variant); host or cells: Flp-In T-REx 293 (HEK 293), tetracycline-inducible, cell line number 4
Excerpt: In order to test whether the human version of the Sdf1-signaling sensor responds to human SDF1 in a similar fashion to that of the fish version of the Sdf1-signaling sensor, the present inventors generated a Flp-In™ T-REx™ 293 cell line that expresses human CXCR4 fused to the RFP variant Kate2 followed by an IRES and a membrane-tethered GFP from a tetracycline-inducible promoter. Because the flippin technology allows one to generate a single copy transgene in a specific genomic location of HEK 293 cells, expression levels from the human Sdf1-signaling sensor are fairly uniform (FIGS. S4A and C).
Human CXCR4-Kate2-IRES-GFP-CaaX was inserted into the FRT sites in the genome of the Flp-In™ T-REx™ cell line using hygromycin selection (Invitrogen). Five different cell lines were established and cell line number 4 was used to characterize the activity of recombinant human SDF1 on the human Sdf1-signaling sensor. Expression of the human Sdf1-signaling sensor was induced using tetracycline and cells were imaged 24 hours after induction of expression using a Leica SP5 II confocal microscope.

sdf1a = test: linearity of the Sdf1-signaling sensor, sdf1a morpholino injection; assay type: in vivo, zebrafish; conditions: increasing amounts of morpholino injected, embryos imaged at 36 hpf, FIG. 3C
Excerpt: Using ImageJ (NIH), a mask was applied to the GFP channel with a threshold to selectively mark the cell membranes of the cells that comprise the primordium. All values in the GFP and Kate2 channels outside of the mask were discarded and the photon counts from the Kate2 channel were divided by the photon counts from the GFP channel for each voxel to yield a Z-stack in which each value-containing voxel represents the ratio of Kate2 fluorescence to GFP fluorescence on the cell membrane. A custom ImageJ (NIH) macro language script was written in order to automate this analysis. The data was then averaged across the dorsal-ventral axis and placed in 1-micron bins in order to yield 100 data points for still images or 80 data points for time-lapse images that correspond to the first 100 μm or the first 80 μm, respectively, from the front tip of the primordium. […]
Tg(cxcr4b:cxcr4b-kate2-IRES-memGFP) embryos were injected alternately with 0, 0.5, 1.0 and 1.5 nl of 0.025 mM or 0.1 mM sdf1a morpholino solution (Doitsidou et al., 2002). […] Image collection and gradient quantification were performed as described above. The shift of the Sdf1-signaling gradient was determined by fitting the average ratios to a second order polynomial using the least squares regression in ImageJ (NIH) and extracting the y-intercept. […]

T1 sequence (P61073 whole entry): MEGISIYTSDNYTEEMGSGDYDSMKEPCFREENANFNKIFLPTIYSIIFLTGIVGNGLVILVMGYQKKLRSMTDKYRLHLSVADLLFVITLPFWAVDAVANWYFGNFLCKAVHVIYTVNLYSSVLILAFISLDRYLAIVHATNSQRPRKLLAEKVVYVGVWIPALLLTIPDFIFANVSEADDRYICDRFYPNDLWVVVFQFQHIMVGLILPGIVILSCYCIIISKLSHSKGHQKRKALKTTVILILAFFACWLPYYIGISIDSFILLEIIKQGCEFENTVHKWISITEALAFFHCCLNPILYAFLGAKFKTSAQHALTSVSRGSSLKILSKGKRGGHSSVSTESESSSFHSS

Question: Which Kd (Cxcr4b) does the source give for “Sdf1: chemokine Sdf1, free ligand binding reversibly to Cxcr4b” here?
Answer: 4 nM

Question: What does the source list for “Sdf1a protein (zebrafish chemokine Sdf1a) (ligand)”?
Answer: reduction in the local concentration of signaling competent Sdf1a in the rear of the primordium [1]: 86%; reduction in the steepness of the Sdf1-signaling gradient across the primordium in the absence of cxcr7b activity [1]: 40%; average FmemRed/FmemGreen ratio of the Sdf1-signaling sensor in the absence of Sdf1a protein [2]: 2.6; average FmemRed/FmemGreen ratio of the Sdf1-signaling sensor upon global Sdf1a over-expression [2]: 0.2; mean FmemRed/FmemGreen at the leading edge of wild-type primordia, 36 hpf [2]: < 0.6; mean FmemRed/FmemGreen in the rear of wild-type primordia, 36 hpf [2]: 2.3; reduction in the local concentration of signaling competent Sdf1a in the rear of the primordium [3]: 86%; reduction in the steepness of the Sdf1-signaling gradient across the primordium in the absence of cxcr7a activity [3]: 31%

Question: Which results are given for “recombinant human SDF1: recombinant human chemokine SDF1, ligand of CXCR4”?
Answer: internalization of CXCR4-Kate2 / activation of the human Sdf1-signaling sensor (human CXCR4): induces internalization of CXCR4-Kate2; internalization of CXCR4-Kate2 / activation of the human Sdf1-signaling sensor (human CXCR4; listed as Recombinant human SDF1): activates the human version of the Sdf1-signaling sensor

Question: Which results are given for “Sdf1a-GFP (Sdf1a fused to green fluorescent protein) (ligand)”?
Answer: fraction of total Sdf1a-GFP sequestered in the rear of the primordium [1]: 1%; reduction of Sdf1a-GFP protein levels on the stripe outside the primordium upon Cxcr7b over-expression [1]: 29%; fraction of total Sdf1a-GFP sequestered in the rear of the primordium [3]: 1%

Question: Which “shift of FmemRed/FmemGreen ratios across the primordium” value (sdf1a) does the source give for “sdf1a morpholino: translation-blocking morpholino against sdf1a, SEQ ID NO: 69 (Doitsidou et al., 2002) (ATCACTTTGAGATCCATGTTTGCA; all phosphorodiamidate morpholino (PMO))” here?
Answer: progressively shifts the FmemRed/FmemGreen ratios across the primordium to higher values
